Data taken from US20240024501A1 (BONUM THERAPEUTICS, published 2024).

Target: PD-1-Fc (UniProt Q15116 25-167, limits assumed)
Assay: cell-based or functional assay

PD-1-Fc, sequence (Q15116 25-167 limits assumed): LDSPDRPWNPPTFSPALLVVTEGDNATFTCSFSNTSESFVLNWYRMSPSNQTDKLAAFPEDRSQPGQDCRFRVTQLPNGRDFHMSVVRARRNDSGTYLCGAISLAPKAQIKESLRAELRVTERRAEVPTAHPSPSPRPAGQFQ

Binder	EC50 of IL-2 activity, HEK-Blue IL-2 reporter cells, IgG1 coated wells (no PD-1)	EC50 of IL-2 activity, HEK-Blue IL-2 reporter cells, PD-1 coated wells	EC50 of IL-2 activity, HEK-Blue IL-2 reporter cells, control wells (no PD-1)
AF4379 (other) heavy: APTSSSTKKTQLQLEHLLLDLQMILNGINNYKNPKLTDMLTFEFYMPKKATELKHLQCLERELKPLEEVLNLAQSKNFHLRPRDLISNINVIVLELKGSETTFMCEYADETATIVEFLNRWITFCQSIISTLTGGGGSGGGGSGGGGSGGGGSQVQLVQSGAEVKKPGASVKVSCKASGDTFTRYYVHWVRQAPGQGLEWMGIINPSGGYASYAQKFQGRVTMTRDTSTSTVYMELSSLRSEDTAVYYCAAGLFIWGQGTLVTVSSAKTTAPSVYPLAPVCGDTTGSSVTLGCLVKGYFPEPVTLTWNSGSLSSGVHTFPAVLQSDLYTLSSSVTVTSSTWPSQSITCNVAHPASSTKVDKKIEPRGPTIKPCPPCKCPAPNAAGGPSVFIFPPKIKDVLMISLSPIVTCVVVDVSEDDPDVQISWFVNNVEVHTAQTQTHREDYNSTLRVVSALPIQHQDWMSGKEFKCKVNNKDLGAPIERTISKPKGSVRAPQVYVLPPPEEEMTKKQVTLTCMVTDFMPEDIYVEWTNNGKTELNYKNTEPVLDSDGSYFMYSKLRVEKKNWVERNSYSCSVVHEGLHNHHTTKSFSRTPGK light: DIQMTQSPSSLSASVGDRVTITCRASQSIGRYLAWYQQKPGKAPKLLIYSASNLETGVPSRFSGSGSGTDFTLTISSLQPEDFATYYCQQYNSFPVTFGPGTKVDIKRADAAPTVSIFPPSSEQLTSGGASVVCFLNNFYPKDINVKWKIDGSERQNGVLNSWTDQDSKDSTYSMSSTLTLTKDEYERHNSYTCEATHKTSTSPIVKSFNRNEC	62 pM	31 pM	
AF4389 (other) heavy 1: APTSSSTKKTQLQLEHLLLDLQMILNGINNYKNPKLTDMLTFEFYMPKKATELKHLQCLERELKPLEEVLNLAQSKNFHLRPRDLISNINVIVLELKGSETTFMCEYADETATIVEFLNRWITFCQSIISTLTGGGGSGGGGSGGGGSGGGGSQVQLVQSGAEVKKPGASVKVSCKASGHTFTRYYMHWVRQAPGQGLEWMGIINPSGGYATYAQKFQGRVTMTRDTSTSTVYMELSSLRSEDTAVYYCASGLFIWGQGTLVTVSSAKTTAPSVYPLAPVCGDTTGSSVTLGCLVKGYFPEPVTLTWNSGSLSSGVHTFPAVLQSDLYTLSSSVTVTSSTWPSQSITCNVAHPASSTKVDKKIEPRGPTIKPCPPCKCPAPNAAGGPSVFIFPPKIKDVLMISLSPIVTCVVVDVSEDDPDVQISWFVNNVEVHTAQTQTHREDYNSTLRVVSALPIQHQDWMSGKEFKCKVNNKDLGAPIERTISKPKGSVRAPQVYVLPPPEEEMTKKQVTLTCMVTDFMPEDIYVEWTNNGKTELNYKNTEPVLDSDGSYFMYSDLRVEKKNWVERNSYSCSVVHEGLHNHHTTESFSRTPGK heavy 2: QVQLVQSGAEVKKPGASVKVSCKASGHTFTRYYMHWVRQAPGQGLEWMGIINPSGGYATYAQKFQGRVTMTRDTSTSTVYMELSSLRSEDTAVYYCASGLFIWGQGTLVTVSSAKTTAPSVYPLAPVCGDTTGSSVTLGCLVKGYFPEPVTLTWNSGSLSSGVHTFPAVLQSDLYTLSSSVTVTSSTWPSQSITCNVAHPASSTKVDKKIEPRGPTIKPCPPCKCPAPNAAGGPSVFIFPPKIKDVLMISLSPIVTCVVVDVSEDDPDVQISWFVNNVEVHTAQTQTHREDYNSTLRVVSALPIQHQDWMSGKEFKCKVNNKDLGAPIERTISKPKGSVRAPQVYVLPPPEKEMTKKQVSLTCLVKDFMPEDIYVEWTNNGKTELNYKNTEPVLKSDGSYFMYSKLTVEKKNWVERNSYSCSVVHEGLHNHHTTKSFSRTPGGGGSGGGSHHHHHH light: DIQMTQSPSSLSASVGDRVTITCRASQSINSWLAWYQQKPGKAPKLLIYATSTLESGVPSRFSGSGSGTDFTLTISSLQPEDFATYYCQQYYRFPVTFGQGTKVEIKRADAAPTVSIFPPSSEQLTSGGASVVCFLNNFYPKDINVKWKIDGSERQNGVLNSWTDQDSKDSTYSMSSTLTLTKDEYERHNSYTCEATHKTSTSPIVKSFNRNEC	1670 pM	118 pM	

The remaining lines, values ahead:

EC50 of IL-2 activity, HEK-Blue IL-2 reporter cells, IgG1 coated wells (no PD-1)	EC50 of IL-2 activity, HEK-Blue IL-2 reporter cells, PD-1 coated wells	EC50 of IL-2 activity, HEK-Blue IL-2 reporter cells, control wells (no PD-1)	Binder
	31 pM	62 pM	AF4403 (other) heavy 1: QVQLVESGGGVVQPGRSLRLDCKASGITFSNSGMHWVRQAPGKGLEWVAVIWYDGSKRYYADSVKGRFTISRDNSKNTLFLQMNSLRAEDTAVYYCATNDDYWGQGTLVTVSSAKTTAPSVYPLAPVCGDTTGSSVTLGCLVKGYFPEPVTLTWNSGSLSSGVHTFPAVLQSDLYTLSSSVTVTSSTWPSQSITCNVAHPASSTKVDKKIEPRGPTIKPCPPCKCPAPNAAGGPSVFIFPPKIKDVLMISLSPIVTCVVVDVSEDDPDVQISWFVNNVEVHTAQTQTHREDYNSTLRVVSALPIQHQDWMSGKEFKCKVNNKDLGAPIERTISKPKGSVRAPQVYVLPPPEKEMTKKQVSLTCLVKDFMPEDIYVEWTNNGKTELNYKNTEPVLKSDGSYFMYSKLTVEKKNWVERNSYSCSVVHEGLHNHHTTKSFSRTPGGGGGSGGGGSGGGGSGGGGSQVQLVQSGAEVKKPGASVKVSCKASGDTFTRYYVHWVRQAPGQGLEWMGIINPSGGYASYAQKFQGRVTMTRDTSTSTVYMELSSLRSEDTAVYYCAAGLFIWGQGTLVTVSSASGGGGSGGGGSGGGGSHASDIQMTQSPSSLSASVGDRVTITCRASQSIGRYLAWYQQKPGKAPKLLIYSASNLETGVPSRFSGSGSGTDFTLTISSLQPEDFATYYCQQYNSFPVTFGPGTKVDIKGGGSGGGSHHHHHH heavy 2: QVQLVESGGGVVQPGRSLRLDCKASGITFSNSGMHWVRQAPGKGLEWVAVIWYDGSKRYYADSVKGRFTISRDNSKNTLFLQMNSLRAEDTAVYYCATNDDYWGQGTLVTVSSAKTTAPSVYPLAPVCGDTTGSSVTLGCLVKGYFPEPVTLTWNSGSLSSGVHTFPAVLQSDLYTLSSSVTVTSSTWPSQSITCNVAHPASSTKVDKKIEPRGPTIKPCPPCKCPAPNAAGGPSVFIFPPKIKDVLMISLSPIVTCVVVDVSEDDPDVQISWFVNNVEVHTAQTQTHREDYNSTLRVVSALPIQHQDWMSGKEFKCKVNNKDLGAPIERTISKPKGSVRAPQVYVLPPPEEEMTKKQVTLTCMVTDFMPEDIYVEWTNNGKTELNYKNTEPVLDSDGSYFMYSDLRVEKKNWVERNSYSCSVVHEGLHNHHTTESFSRTPGGGGGSGGGGSGGGGSAPTSSSTKKTQLQLEHLLLDLQMILNGINNYKNPKLTDMLTFEFYMPKKATELKHLQCLERELKPLEEVLNLAQSKNFHLRPRDLISNINVIVLELKGSETTFMCEYADETATIVEFLNRWITFCQSIISTLT light: EIVLTQSPATLSLSPGERATLSCRASQSVSSYLAWYQQKPGQAPRLLIYDASNRATGIPARFSGSGSGTDFTLTISSLEPEDFAVYYCQQSSNWPRTFGQGTKVEIKRADAAPTVSIFPPSSEQLTSGGASVVCFLNNFYPKDINVKWKIDGSERQNGVLNSWTDQDSKDSTYSMSSTLTLTKDEYERHNSYTCEATHKTSTSPIVKSFNRNEC
	26 pM	64 pM	AF4404 (other) heavy 1: QVQLVESGGGVVQPGRSLRLDCKASGITFSNSGMHWVRQAPGKGLEWVAVIWYDGSKRYYADSVKGRFTISRDNSKNTLFLQMNSLRAEDTAVYYCATNDDYWGQGTLVTVSSAKTTAPSVYPLAPVCGDTTGSSVTLGCLVKGYFPEPVTLTWNSGSLSSGVHTFPAVLQSDLYTLSSSVTVTSSTWPSQSITCNVAHPASSTKVDKKIEPRGPTIKPCPPCKCPAPNAAGGPSVFIFPPKIKDVLMISLSPIVTCVVVDVSEDDPDVQISWFVNNVEVHTAQTQTHREDYNSTLRVVSALPIQHQDWMSGKEFKCKVNNKDLGAPIERTISKPKGSVRAPQVYVLPPPEKEMTKKQVSLTCLVKDFMPEDIYVEWTNNGKTELNYKNTEPVLKSDGSYFMYSKLTVEKKNWVERNSYSCSVVHEGLHNHHTTKSFSRTPGGGGGSGGGGSGGGGSGGGGSQVQLVQSGAEVKKPGASVKVSCKASGYTFTDYYMHWVRQAPGQGLEWMGIINPRAGYTSYALKFQGRVTMTRDTSTSTVYMELSSLRSEDTAVYYCTSGWDVWGQGTLVTVSSASGGGGSGGGGSGGGGSHASDIQMTQSPSSLSASVGDRVTITCRASQSISTWLAWYQQKPGKAPKLLIYAASSLDSGVPSRFSGSGSGTDFTLTISSLQPEDFATYYCQQSYSFPVTFGQGTKVEIKGGGSGGGSHHHHHH heavy 2: QVQLVESGGGVVQPGRSLRLDCKASGITFSNSGMHWVRQAPGKGLEWVAVIWYDGSKRYYADSVKGRFTISRDNSKNTLFLQMNSLRAEDTAVYYCATNDDYWGQGTLVTVSSAKTTAPSVYPLAPVCGDTTGSSVTLGCLVKGYFPEPVTLTWNSGSLSSGVHTFPAVLQSDLYTLSSSVTVTSSTWPSQSITCNVAHPASSTKVDKKIEPRGPTIKPCPPCKCPAPNAAGGPSVFIFPPKIKDVLMISLSPIVTCVVVDVSEDDPDVQISWFVNNVEVHTAQTQTHREDYNSTLRVVSALPIQHQDWMSGKEFKCKVNNKDLGAPIERTISKPKGSVRAPQVYVLPPPEEEMTKKQVTLTCMVTDFMPEDIYVEWTNNGKTELNYKNTEPVLDSDGSYFMYSDLRVEKKNWVERNSYSCSVVHEGLHNHHTTESFSRTPGGGGGSGGGGSGGGGSAPTSSSTKKTQLQLEHLLLDLQMILNGINNYKNPKLTDMLTFEFYMPKKATELKHLQCLERELKPLEEVLNLAQSKNFHLRPRDLISNINVIVLELKGSETTFMCEYADETATIVEFLNRWITFCQSIISTLT light: EIVLTQSPATLSLSPGERATLSCRASQSVSSYLAWYQQKPGQAPRLLIYDASNRATGIPARFSGSGSGTDFTLTISSLEPEDFAVYYCQQSSNWPRTFGQGTKVEIKRADAAPTVSIFPPSSEQLTSGGASVVCFLNNFYPKDINVKWKIDGSERQNGVLNSWTDQDSKDSTYSMSSTLTLTKDEYERHNSYTCEATHKTSTSPIVKSFNRNEC
